Laboratory results reported in patent US20020123623.

Tested on: T1, Ntlim1 (effector plasmid, BY-2 protoplasts) (Nicotiana tabacum)
T1 sequence: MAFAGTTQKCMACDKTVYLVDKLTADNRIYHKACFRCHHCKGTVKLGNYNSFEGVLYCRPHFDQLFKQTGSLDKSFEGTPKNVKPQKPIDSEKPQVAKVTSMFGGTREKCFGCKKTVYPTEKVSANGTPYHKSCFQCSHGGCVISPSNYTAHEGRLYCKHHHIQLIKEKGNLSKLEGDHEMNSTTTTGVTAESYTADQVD
Assay: cell_activity
Details: about three times GUS expression vs reporter alone in tobacco BY-2 protoplasts; direct binding not measured

Sequence: CCACTTGAGTAC (double strand)
- activity: 3 fold
